For test [1], the target named is EPHA2 fused to a fluorescent protein for FRET (EPHA2-mRuby3; EPHA2-mClover3) (human) (UniProt P29317). The test is described as follows: FRET or BRET.
Test [2] has as its target ROBO1 fused to a fluorescent protein for FRET (ROBO1-mClover3) (human) (UniProt Q9Y6N7). The test is described as follows: FRET or BRET. (BRET reads energy transfer from a luciferase to a nearby fluorophore.)
Chain of UniProt Q9Y6N7 (Q9Y6N7 26-1651): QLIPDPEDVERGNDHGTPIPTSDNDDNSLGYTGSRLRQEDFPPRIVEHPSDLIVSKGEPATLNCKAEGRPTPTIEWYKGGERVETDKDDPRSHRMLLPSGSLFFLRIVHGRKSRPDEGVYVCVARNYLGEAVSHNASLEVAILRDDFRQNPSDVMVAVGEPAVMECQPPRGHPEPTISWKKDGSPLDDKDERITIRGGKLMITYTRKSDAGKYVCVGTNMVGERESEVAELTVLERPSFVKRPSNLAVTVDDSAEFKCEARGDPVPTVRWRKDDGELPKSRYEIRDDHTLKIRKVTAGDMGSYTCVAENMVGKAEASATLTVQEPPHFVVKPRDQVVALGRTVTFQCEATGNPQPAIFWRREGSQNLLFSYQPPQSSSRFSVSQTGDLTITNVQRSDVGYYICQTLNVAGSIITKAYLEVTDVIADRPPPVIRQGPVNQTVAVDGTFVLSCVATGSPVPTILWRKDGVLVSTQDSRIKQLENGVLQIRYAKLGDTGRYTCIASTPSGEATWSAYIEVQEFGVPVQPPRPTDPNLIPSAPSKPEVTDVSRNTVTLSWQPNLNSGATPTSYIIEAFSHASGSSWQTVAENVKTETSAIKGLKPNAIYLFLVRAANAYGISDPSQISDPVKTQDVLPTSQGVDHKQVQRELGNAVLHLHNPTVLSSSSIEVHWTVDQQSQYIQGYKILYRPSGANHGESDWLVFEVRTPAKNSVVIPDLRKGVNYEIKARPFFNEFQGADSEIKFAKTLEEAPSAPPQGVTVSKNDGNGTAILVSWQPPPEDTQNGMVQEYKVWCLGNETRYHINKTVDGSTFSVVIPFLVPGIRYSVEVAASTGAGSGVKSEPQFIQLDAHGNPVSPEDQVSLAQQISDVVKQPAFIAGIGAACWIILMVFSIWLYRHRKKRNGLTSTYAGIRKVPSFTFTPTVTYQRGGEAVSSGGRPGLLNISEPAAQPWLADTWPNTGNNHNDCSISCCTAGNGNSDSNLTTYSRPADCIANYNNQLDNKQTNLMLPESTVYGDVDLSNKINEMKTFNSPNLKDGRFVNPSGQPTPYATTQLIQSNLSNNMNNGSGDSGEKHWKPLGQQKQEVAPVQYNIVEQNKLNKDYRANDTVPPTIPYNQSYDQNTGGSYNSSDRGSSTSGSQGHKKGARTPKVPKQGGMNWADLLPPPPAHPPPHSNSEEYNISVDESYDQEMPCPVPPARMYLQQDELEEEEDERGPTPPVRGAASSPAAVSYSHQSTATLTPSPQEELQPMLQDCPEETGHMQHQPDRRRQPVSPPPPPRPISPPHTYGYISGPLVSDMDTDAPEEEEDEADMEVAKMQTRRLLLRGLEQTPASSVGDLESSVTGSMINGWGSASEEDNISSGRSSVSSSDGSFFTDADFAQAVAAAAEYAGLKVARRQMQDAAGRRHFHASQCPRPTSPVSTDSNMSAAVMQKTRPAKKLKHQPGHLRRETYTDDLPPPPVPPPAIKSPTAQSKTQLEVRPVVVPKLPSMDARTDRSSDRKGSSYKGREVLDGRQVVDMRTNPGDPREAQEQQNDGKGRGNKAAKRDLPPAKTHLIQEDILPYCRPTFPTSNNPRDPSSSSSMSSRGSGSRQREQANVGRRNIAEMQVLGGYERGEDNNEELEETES

For the substance “EPHA2 fused to a fluorescent protein for FRET (EPHA2-mRuby3; EPHA2-mClover3) (from UniProt P29317 24-976) (receptor)”, the N-FRET in test [1] worked out at 0.347; in test [2] it was 0.234.

(Values after paper doi:10.1101/2020.04.09.034405.)
